Residue numbers refer to the chain shown, from its start.

Consider 44 molecules from patent US20260216326A1 (PROMETHEUS BIOSCIENCES, published 2026).

The target of the assay is T1, human TL1A (Fitzgerald #30R-AT070) (human, UniProt O95150 72-251, limits assumed).
T1 construct: Coated on the ELISA plate at 1 ug/mL; also called TNFSF15
T1 sequence (looked up): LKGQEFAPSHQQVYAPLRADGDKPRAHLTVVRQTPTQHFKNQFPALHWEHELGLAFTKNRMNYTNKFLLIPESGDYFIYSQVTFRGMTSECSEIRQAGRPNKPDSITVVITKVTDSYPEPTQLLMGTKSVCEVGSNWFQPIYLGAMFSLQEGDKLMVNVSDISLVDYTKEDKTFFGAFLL
In words: ELISA titration, coated human TL1A, culture supernatant.

B1: A104 (antibody, human IgG1, V domains shown)
VH: QVQLVQSGAEVKKPGASVKVSCKASGFDIQDTYMHWVRQAPGQGLEWIGRIDPASGHTKYDPKFQVRATITTDTSTSTAYLELSSLRSEDTAVYYCARSGGLPDVWGQGTTVTVSS
VL: EIVLTQSPGTLSLSPGERATLSCRASSSVSYMYWYQQKPGQAPRLLIYATSNLASGIPDRFSGSGSGTDFTLTISRLEPEDFAVYYCQQWKGNPRTFGGGTKLEIK
notes: human IgG1/kappa (pFuse vectors), culture supernatant
By Kd is commonly meant the constant that tells how readily two partners part at equilibrium. A high value points to a looser complex. In turn, B1 had a Kd of 0.108 nM.

B2: A127 (antibody, human IgG1, V domains shown)
VH: B1 VH with R38K, A40R, I48M, A68V
VL: B1 VL
notes: as for B1
For the molecule B2, the Kd came out at 0.07 nM.

B3: A126 (antibody, human IgG1, V domains shown)
VH: B1 VH with R38K, A40R, I48M, A68V, T72R
VL: B1 VL
notes: as for B1
Turning to B3, the affinity, expressed as Kd, was 0.123 nM. This Kd lies about 1.8-fold higher than the previous one.

B4: A112 (antibody, human IgG1, V domains shown)
VH: QVQLVQSGAEVKKPGASVKVSCKASGFDIQDTYMHWVKQRPGQGLEWMGRIEPASGHIKYDPKFQGRVTMTRDTSTSTVYMELSSLRSEDTAVYYCARSGGLPDWWGQGTTVTVSS
VL: B1 VL with L45P, L46W, K91E
notes: as for B1
In turn, B4 returned a Kd of 0.054 nM.

B5: A151 (antibody, human IgG1, V domains shown)
VH: B4 VH with K38R, R40A, G66V, V68A, M70I
VL: B1 VL with L45P, K91E
notes: as for B1
For the molecule B5, the Kd was determined as 0.057 nM.

B6: A150 (antibody, human IgG1, V domains shown)
VH: B4 VH with K38R, R40A, V68A
VL: B1 VL with L45P, K91E
notes: as for B1
B6 gave a Kd of 0.059 nM.

B7: A138 (antibody, human IgG1, V domains shown)
VH: B4 VH with K38R, R40A, G66V, V68A
VL: B1 VL with K91S, G92R
notes: as for B1
As for B7, the Kd was 0.069 nM.

B8: A145 (antibody, human IgG1, V domains shown)
VH: B4 VH with K38R, R40A, V79A
VL: B1 VL with L45P, K91E
notes: as for B1
With B8, binding was characterised by a dissociation constant (Kd) of 0.07 nM.

B9: A128 (antibody, human IgG1, V domains shown)
VH: B1 VH with A40R, I48M, A68V, T72R
VL: B1 VL
notes: as for B1
Take B9: the Kd stood at 0.111 nM. Compared with the last molecule, the Kd is about 1.6-fold higher.

B10: A125 (antibody, human IgG1, V domains shown)
VH: B1 VH with R38K, A40R, I48M, T72R
VL: B1 VL
notes: as for B1
As for B10, the Kd stood at 0.116 nM.

B11: A133 (antibody, human IgG1, V domains shown)
VH: B4 VH with K38R, R40A, G66V
VL: B1 VL with L45P
notes: as for B1
As to B11, binding was put at a Kd of 0.058 nM. This Kd lies about 2-fold lower than the previous one.

B12: A149 (antibody, human IgG1, V domains shown)
VH: B4 VH with K38R, R40A, G66V, V68A
VL: B1 VL with L45P, K91E
notes: as for B1
As for B12, the Kd was 0.048 nM. This Kd and that of the molecule before are within 1.5-fold of each other.

B13: A117 (antibody, human IgG1, V domains shown)
VH: B4 VH with K38R, R40A, E52D
VL: B1 VL with L45P, L46W, K91E
notes: as for B1
B13 returned a Kd of 0.094 nM. Compared with the last molecule, the Kd is about 2-fold higher.

B14: A129 (antibody, human IgG1, V domains shown)
VH: B1 VH with A40R, I48M, A68V
VL: B1 VL
notes: as for B1
As to B14, binding was put at a Kd of 0.099 nM. This Kd and that of the molecule before are within 1.5-fold of each other.

B15: A119 (antibody, human IgG1, V domains shown)
VH: B4 VH with K38R, R40A, I58T
VL: B1 VL with L45P, L46W, K91E
notes: as for B1
B15 had a Kd of 0.087 nM.

B16: A123 (antibody, human IgG1, V domains shown)
VH: B1 VH with A40R, A68V, T72R
VL: B1 VL
notes: as for B1
Molecule B16 returned a Kd of 0.104 nM.

B17: A134 (antibody, human IgG1, V domains shown)
VH: B4 VH with K38R, R40A, G66V, V68A
VL: B1 VL with L45P
notes: as for B1
For the molecule B17, binding was put at a Kd of 0.055 nM.

B18: A137 (antibody, human IgG1, V domains shown)
VH: B4 VH with K38R, R40A, G66V
VL: B1 VL with K91S, G92R
notes: as for B1
Take B18: the Kd was found to be 0.05 nM. The Kd values of the last two molecules are within 1.5-fold of each other.

B19: A121 (antibody, human IgG1, V domains shown)
VH: B1 VH with A40R, I48M
VL: B1 VL
notes: as for B1
Take B19: the Kd worked out at 0.106 nM.

B20: A132 (antibody, human IgG1, V domains shown)
VH: B4 VH with K38R, R40A, V68A
VL: B1 VL with L45P
notes: as for B1
Consider B20, for which binding was put at a Kd of 0.062 nM.

B21: A111 (antibody, human IgG1, V domains shown)
VH: B4 VH with K38R
VL: B1 VL with L45P, L46W, K91E
notes: as for B1
In turn, B21 had a Kd of 0.068 nM.

B22: A136 (antibody, human IgG1, V domains shown)
VH: B4 VH with R40A
VL: B1 VL with L45P
notes: as for B1
B22: the Kd was determined as 0.053 nM.

B23: A118 (antibody, human IgG1, V domains shown)
VH: B4 VH with K38R, R40A, M48I, E52D
VL: B1 VL with L45P, L46W, K91E
notes: as for B1
B23 registered a dissociation constant Kd of 0.083 nM. Against the preceding molecule, the Kd is about 1.6-fold higher.

B24: A143 (antibody, human IgG1, V domains shown)
VH: B4 VH with K38R, R40A
VL: B1 VL with K91E
notes: as for B1
In the case of B24, the Kd stood at 0.085 nM. This Kd and that of the molecule before are within 1.5-fold of each other.

B25: A124 (antibody, human IgG1, V domains shown)
VH: B1 VH with A40R, A68V
VL: B1 VL
notes: as for B1
Consider B25, for which binding was characterised by a dissociation constant (Kd) of 0.091 nM. The Kd values of the last two molecules are within 1.5-fold of each other.

B26: A110 (antibody, human IgG1, V domains shown)
VH: B4 VH with R40A
VL: B1 VL with L45P, L46W, K91E
notes: as for B1
The molecule B26 showed a Kd of 0.056 nM.

B27: A142 (antibody, human IgG1, V domains shown)
VH: B1 VH with A40R, I48M, A68V, T72R
VL: B1 VL with K91E
notes: as for B1
On to B27, for which the affinity, expressed as Kd, was 0.126 nM.

B28: A105 (antibody, human IgG1, V domains shown)
VH: B1 VH with R38K, A40R, A79V, L81M
VL: B1 VL
notes: as for B1
As for B28, the affinity, expressed as Kd, was 0.11 nM.

B29: A147 (antibody, human IgG1, V domains shown)
VH: B4 VH
VL: B1 VL with L45P, K91E
notes: as for B1
With B29, binding was put at a Kd of 0.063 nM.

B30: A114 (antibody, human IgG1, V domains shown)
VH: B4 VH with K38R, R40A, G66V
VL: B1 VL with L45P, L46W, K91E
notes: as for B1
In turn, B30 returned a Kd of 0.051 nM. This Kd and that of the molecule before are within 1.5-fold of each other.

B31: A108 (antibody, human IgG1, V domains shown)
VH: B4 VH with Q1E, K38R, R40A
VL: B1 VL with L45P, L46W, K91E
notes: as for B1
For the molecule B31, binding was characterised by a dissociation constant (Kd) of 0.055 nM. The Kd values of the last two molecules are within 1.5-fold of each other.

B32: A139 (antibody, human IgG1, V domains shown)
VH: B1 VH with A40R, I48M, A68V
VL: B1 VL with K91S, G92R
notes: as for B1
The molecule B32 registered a Kd of 0.074 nM.

B33: A120 (antibody, human IgG1, V domains shown)
VH: B4 VH with K38R, R40A, I58V
VL: B1 VL with L45P, L46W, K91E
notes: as for B1
Molecule B33 returned a Kd of 0.085 nM.

B34: A113 (antibody, human IgG1, V domains shown)
VH: B4 VH with K38R, R40A, G66V, V68A, M70I
VL: B1 VL with L45P, L46W, K91E
notes: as for B1
As for B34, the affinity, expressed as Kd, was 0.05 nM.

B35: A141 (antibody, human IgG1, V domains shown)
VH: B1 VH with A40R, I48M, A68V, T72R
VL: B1 VL with K91S, G92R
notes: as for B1
B35: binding was characterised by a dissociation constant (Kd) of 0.108 nM.

B36: A146 (antibody, human IgG1, V domains shown)
VH: B4 VH with R40A
VL: B1 VL with L45P, K91E
notes: as for B1
For B36, binding was characterised by a dissociation constant (Kd) of 0.065 nM.

B37: A130 (antibody, human IgG1, V domains shown)
VH: B4 VH with K38R, R40A, G66V
VL: B1 VL with L45P, L46W, K91E
notes: as for B1
As for B37, binding was put at a Kd of 0.075 nM.

B38: A116 (antibody, human IgG1, V domains shown)
VH: B4 VH with K38R, R40A, G66V, M70I
VL: B1 VL with L45P, L46W, K91E
notes: as for B1
As to B38, binding was characterised by a dissociation constant (Kd) of 0.053 nM.

B39: A115 (antibody, human IgG1, V domains shown)
VH: B4 VH with K38R, R40A, G66V, V68A
VL: B1 VL with L45P, L46W, K91E
notes: as for B1
For the molecule B39, binding was characterised by a dissociation constant (Kd) of 0.058 nM. This Kd and that of the molecule before are within 1.5-fold of each other.

B40: A107 (antibody, human IgG1, V domains shown)
VH: B1 VH with R38K, A40R
VL: B1 VL with K91E
notes: as for B1
In turn, B40 yielded a Kd of 0.071 nM.

B41: A109 (antibody, human IgG1, V domains shown)
VH: B4 VH with K38R, R40A, V79A
VL: B1 VL with L45P, L46W, K91E
notes: as for B1
For the molecule B41, binding was put at a Kd of 0.05 nM.

B42: A135 (antibody, human IgG1, V domains shown)
VH: B4 VH with K38R, R40A, V79A
VL: B1 VL with L45P
notes: as for B1
In turn, B42 gave a dissociation constant (Kd) of 0.056 nM.

B43: A140 (antibody, human IgG1, V domains shown)
VH: B1 VH with A40R, I48M, A68V
VL: B1 VL with K91E
notes: as for B1
In turn, B43 came in with a Kd of 0.073 nM.

B44: A122 (antibody, human IgG1, V domains shown)
VH: B1 VH with A40R, T72R
VL: B1 VL
notes: as for B1
Take B44: the Kd came to 0.112 nM.
